The experiment concerns the target VEGF (VEGF 1-165 aa, R&D Systems 293-VE-010) (UniProt P15692 27-191). The experiment is described as follows: Direct bind ELISA, VEGF coated on plate.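 Further: ELISA screening of antibodies for binding to the plate-coated target antigen.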 For orientation: ELISA stands for enzyme-linked immunosorbent assay.

This note sets out measurements from patent US20100260668A1 (published 2010).

VEGF (VEGF 1-165 aa, R&D Systems 293-VE-010), sequence (P15692 other isoform, or with tags, fused parts or gaps limits assumed): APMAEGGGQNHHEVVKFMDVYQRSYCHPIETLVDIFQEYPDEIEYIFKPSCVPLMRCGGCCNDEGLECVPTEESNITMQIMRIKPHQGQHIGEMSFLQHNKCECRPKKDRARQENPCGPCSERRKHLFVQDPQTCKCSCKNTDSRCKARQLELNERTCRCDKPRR
Protocol: Enzyme Linked Immunosorbent Assays to screen for antibodies that bind a desired target antigen were performed as follows. […] Plates were washed four times with PBS containing 0.02% Tween 20. Plates were blocked by the addition of 300 μL/well blocking solution (non-fat dry milk powder, various retail suppliers, diluted to 2% in PBS) for ½ hour at room temperature. Plates were washed four times after blocking with PBS containing 0.02% Tween 20.
Plates were washed 4 times with PBS containing 0.02% Tween 20.

B1: DVD443 (bispecific antibody, IgG1)
VH: QVQLVQSGAEVKKPGASVKISCKASGYSFTAYYIHWVKQAPGQGLEWIGYISSYNGATNYNQKFKGRVTFTTDTSTSTAYMELRSLRSDDTAVYYCARDYDYDVGMDYWGQGTLVTVSSASTKGPEVQLVESGGGLVQPGGSLRLSCAASGFTISDYWIHWVRQAPGKGLEWVAGITPAGGYTYYADSVKGRFTISADTSKNTAYLQMNSLRAEDTAVYYCARFVFFLPYAMDYWGQGTLVTVSS
VL: DIVMTQSPDSLAVSLGERATISCRASESVDNYGISFMKWFQQKPGQPPKLLIYAASNQGSGVPDRFSGSGSGTDFTLTISSLQAEDVAVYYCQQSKEVPWTFGGGTKVEIKRTVAAPDIQMTQSPSSLSASVGDRVTITCRASQDVSTAVAWYQQKPGKAPKLLIYSASFLYSGVPSRFSGSGSGTDFTLTISSLQPEDFATYYCQQSYTTPPTFGQGTKVEIKR
notes: HC linker short, LC linker short; also called DVD443H; DVD443L
What is called EC50 is the concentration that produces a half-maximal response. As to B1, the midpoint of the response, the EC50, lay at 611 nM. In other words, the sub-micromolar range.

B2: DVD461 (bispecific antibody, IgG1)
VH: QVQLVQSGAEVKKPGASVKISCKASGYSFTAYYIHWVKQAPGQGLEWIGYISSYNGATNYNQKFKGRVTFTTDTSTSTAYMELRSLRSDDTAVYYCARDYDYDVGMDYWGQGTLVTVSSASTKGPEVQLVESGGGLVQPGGSLRLSCAASGFTISDYWIHWVRQAPGKGLEWVAGITPAGGYTYYADSVKGRFTISADTSKNTAYLQMNSLRAEDTAVYYCARFVFFLPYAMDYWGQGTLVTVSS
VL: DIVMTQSPDSLAVSLGERATISCRASESVDNYGISFMKWFQQKPGQPPKLLIYAASNQGSGVPDRFSGSGSGTDFTLTISSLQAEDVAVYYCQQSKEVPWTFGGGTKVEIKRTVAAPSVFIFPPDIQMTQSPSSLSASVGDRVTITCRASQDVSTAVAWYQQKPGKAPKLLIYSASFLYSGVPSRFSGSGSGTDFTLTISSLQPEDFATYYCQQSYTTPPTFGQGTKVEIKR
notes: HC linker short, LC linker long; also called DVD461H; DVD461L
For B2, the EC50 came to 10.4 nM. Against the preceding molecule, the EC50 is about 59-fold lower.

B3: DVD455 (bispecific antibody, IgG1)
VH: QVQLVQSGAEVKKPGASVKISCKASGYSFTAYYIHWVKQAPGQGLEWIGYISSYNGATNYNQKFKGRVTFTTDTSTSTAYMELRSLRSDDTAVYYCARDYDYDVGMDYWGQGTLVTVSSASTKGPSVFPLAPEVQLVESGGGLVQPGGSLRLSCAASGFTISDYWIHWVRQAPGKGLEWVAGITPAGGYTYYADSVKGRFTISADTSKNTAYLQMNSLRAEDTAVYYCARFVFFLPYAMDYWGQGTLVTVSS
VL: DIVMTQSPDSLAVSLGERATISCRASESVDNYGISFMKWFQQKPGQPPKLLIYAASNQGSGVPDRFSGSGSGTDFTLTISSLQAEDVAVYYCQQSKEVPWTFGGGTKVEIKRTVAAPDIQMTQSPSSLSASVGDRVTITCRASQDVSTAVAWYQQKPGKAPKLLIYSASFLYSGVPSRFSGSGSGTDFTLTISSLQPEDFATYYCQQSYTTPPTFGQGTKVEIKR
notes: HC linker long, LC linker short; also called DVD455H; DVD455L
B3: a half-maximal effect (EC50) was put at 26.7 nM.

B4: DVD458 (bispecific antibody, IgG1)
VH: EVQLVESGGGLVQPGGSLRLSCAASGFTINASWIHWVRQAPGKGLEWVGAIYPYSGYTNYADSVKGRFTISADTSKNTAYLQMNSLRAEDTAVYYCARWGHSTSPWAMDYWGQGTLVTVSSASTKGPSVFPLAPQVQLVQSGAEVKKPGASVKISCKASGYSFTAYYIHWVKQAPGQGLEWIGYISSYNGATNYNQKFKGRVTFTTDTSTSTAYMELRSLRSDDTAVYYCARDYDYDVGMDYWGQGTLVTVSS
VL: DIQMTQSPSSLSASVGDRVTITCRASQVIRRSLAWYQQKPGKAPKLLIYAASNLASGVPSRFSGSGSGTDFTLTISSLQPEDFATYYCQQSNTSPLTFGQGTKVEIKRTVAAPDIVMTQSPDSLAVSLGERATISCRASESVDNYGISFMKWFQQKPGQPPKLLIYAASNQGSGVPDRFSGSGSGTDFTLTISSLQAEDVAVYYCQQSKEVPWTFGGGTKVEIKR
notes: DVD-Ig, outer AB071 / inner AB069; HC linker long, LC linker short; also called DVD458H; DVD458L
As to B4, the 50% effective concentration (EC50) is 21.5 nM.

B5: DVD450 (bispecific antibody, IgG1)
VH: EVQLVESGGGLVQPGGSLRLSCAASGFTISDYWIHWVRQAPGKGLEWVAGITPAGGYTYYADSVKGRFTISADTSKNTAYLQMNSLRAEDTAVYYCARFVFFLPYAMDYWGQGTLVTVSSASTKGPSVFPLAPQVQLVQSGAEVKKPGASVKISCKASGYSFTAYYIHWVKQAPGQGLEWIGYISSYNGATNYNQKFKGRVTFTTDTSTSTAYMELRSLRSDDTAVYYCARDYDYDVGMDYWGQGTLVTVSS
VL: DIQMTQSPSSLSASVGDRVTITCRASQDVSTAVAWYQQKPGKAPKLLIYSASFLYSGVPSRFSGSGSGTDFTLTISSLQPEDFATYYCQQSYTTPPTFGQGTKVEIKRTVAAPSVFIFPPDIVMTQSPDSLAVSLGERATISCRASESVDNYGISFMKWFQQKPGQPPKLLIYAASNQGSGVPDRFSGSGSGTDFTLTISSLQAEDVAVYYCQQSKEVPWTFGGGTKVEIKR
notes: HC linker long, LC linker long; also called DVD450H; DVD450L
B5 registered a concentration for a half-maximal effect (EC50) of 12.1 nM.

B6: DVD449 (bispecific antibody, IgG1)
VH: QVQLVQSGAEVKKPGASVKISCKASGYSFTAYYIHWVKQAPGQGLEWIGYISSYNGATNYNQKFKGRVTFTTDTSTSTAYMELRSLRSDDTAVYYCARDYDYDVGMDYWGQGTLVTVSSASTKGPSVFPLAPEVQLVESGGGLVQPGGSLRLSCAASGFTISDYWIHWVRQAPGKGLEWVAGITPAGGYTYYADSVKGRFTISADTSKNTAYLQMNSLRAEDTAVYYCARFVFFLPYAMDYWGQGTLVTVSS
VL: DIVMTQSPDSLAVSLGERATISCRASESVDNYGISFMKWFQQKPGQPPKLLIYAASNQGSGVPDRFSGSGSGTDFTLTISSLQAEDVAVYYCQQSKEVPWTFGGGTKVEIKRTVAAPSVFIFPPDIQMTQSPSSLSASVGDRVTITCRASQDVSTAVAWYQQKPGKAPKLLIYSASFLYSGVPSRFSGSGSGTDFTLTISSLQPEDFATYYCQQSYTTPPTFGQGTKVEIKR
notes: HC linker long, LC linker long; also called DVD449H; DVD449L
For B6, the EC50 came to 15.6 nM.

B7: DVD464 (bispecific antibody, IgG1)
VH: EVQLVESGGGLVQPGGSLRLSCAASGFTINASWIHWVRQAPGKGLEWVGAIYPYSGYTNYADSVKGRFTISADTSKNTAYLQMNSLRAEDTAVYYCARWGHSTSPWAMDYWGQGTLVTVSSASTKGPQVQLVQSGAEVKKPGASVKISCKASGYSFTAYYIHWVKQAPGQGLEWIGYISSYNGATNYNQKFKGRVTFTTDTSTSTAYMELRSLRSDDTAVYYCARDYDYDVGMDYWGQGTLVTVSS
VL: DIQMTQSPSSLSASVGDRVTITCRASQVIRRSLAWYQQKPGKAPKLLIYAASNLASGVPSRFSGSGSGTDFTLTISSLQPEDFATYYCQQSNTSPLTFGQGTKVEIKRTVAAPSVFIFPPDIVMTQSPDSLAVSLGERATISCRASESVDNYGISFMKWFQQKPGQPPKLLIYAASNQGSGVPDRFSGSGSGTDFTLTISSLQAEDVAVYYCQQSKEVPWTFGGGTKVEIKR
notes: DVD-Ig, outer AB071 / inner AB069; HC linker short, LC linker long; also called DVD464H; DVD464L
B7 showed an EC50 of 19.3 nM.

B8: DVD444 (bispecific antibody, IgG1)
VH: EVQLVESGGGLVQPGGSLRLSCAASGFTISDYWIHWVRQAPGKGLEWVAGITPAGGYTYYADSVKGRFTISADTSKNTAYLQMNSLRAEDTAVYYCARFVFFLPYAMDYWGQGTLVTVSSASTKGPQVQLVQSGAEVKKPGASVKISCKASGYSFTAYYIHWVKQAPGQGLEWIGYISSYNGATNYNQKFKGRVTFTTDTSTSTAYMELRSLRSDDTAVYYCARDYDYDVGMDYWGQGTLVTVSS
VL: DIQMTQSPSSLSASVGDRVTITCRASQDVSTAVAWYQQKPGKAPKLLIYSASFLYSGVPSRFSGSGSGTDFTLTISSLQPEDFATYYCQQSYTTPPTFGQGTKVEIKRTVAAPDIVMTQSPDSLAVSLGERATISCRASESVDNYGISFMKWFQQKPGQPPKLLIYAASNQGSGVPDRFSGSGSGTDFTLTISSLQAEDVAVYYCQQSKEVPWTFGGGTKVEIKR
notes: HC linker short, LC linker short; also called DVD444H; DVD444L
Turning to B8, a half-maximal effect (EC50) was put at 2.44 nM.

B9: DVD456 (bispecific antibody, IgG1)
VH: EVQLVESGGGLVQPGGSLRLSCAASGFTISDYWIHWVRQAPGKGLEWVAGITPAGGYTYYADSVKGRFTISADTSKNTAYLQMNSLRAEDTAVYYCARFVFFLPYAMDYWGQGTLVTVSSASTKGPSVFPLAPQVQLVQSGAEVKKPGASVKISCKASGYSFTAYYIHWVKQAPGQGLEWIGYISSYNGATNYNQKFKGRVTFTTDTSTSTAYMELRSLRSDDTAVYYCARDYDYDVGMDYWGQGTLVTVSS
VL: DIQMTQSPSSLSASVGDRVTITCRASQDVSTAVAWYQQKPGKAPKLLIYSASFLYSGVPSRFSGSGSGTDFTLTISSLQPEDFATYYCQQSYTTPPTFGQGTKVEIKRTVAAPDIVMTQSPDSLAVSLGERATISCRASESVDNYGISFMKWFQQKPGQPPKLLIYAASNQGSGVPDRFSGSGSGTDFTLTISSLQAEDVAVYYCQQSKEVPWTFGGGTKVEIKR
notes: HC linker long, LC linker short; also called DVD456H; DVD456L
B9 came in with an EC50 of 1.63 nM.

B10: DVD462 (bispecific antibody, IgG1)
VH: EVQLVESGGGLVQPGGSLRLSCAASGFTISDYWIHWVRQAPGKGLEWVAGITPAGGYTYYADSVKGRFTISADTSKNTAYLQMNSLRAEDTAVYYCARFVFFLPYAMDYWGQGTLVTVSSASTKGPQVQLVQSGAEVKKPGASVKISCKASGYSFTAYYIHWVKQAPGQGLEWIGYISSYNGATNYNQKFKGRVTFTTDTSTSTAYMELRSLRSDDTAVYYCARDYDYDVGMDYWGQGTLVTVSS
VL: DIQMTQSPSSLSASVGDRVTITCRASQDVSTAVAWYQQKPGKAPKLLIYSASFLYSGVPSRFSGSGSGTDFTLTISSLQPEDFATYYCQQSYTTPPTFGQGTKVEIKRTVAAPSVFIFPPDIVMTQSPDSLAVSLGERATISCRASESVDNYGISFMKWFQQKPGQPPKLLIYAASNQGSGVPDRFSGSGSGTDFTLTISSLQAEDVAVYYCQQSKEVPWTFGGGTKVEIKR
notes: HC linker short, LC linker long; also called DVD462H; DVD462L
With B10, the half-maximal effective concentration (EC50) was found to be 8 nM. Compared with the last molecule, the EC50 is about 4.9-fold higher.

B11: DVD457 (bispecific antibody, IgG1)
VH: QVQLVQSGAEVKKPGASVKISCKASGYSFTAYYIHWVKQAPGQGLEWIGYISSYNGATNYNQKFKGRVTFTTDTSTSTAYMELRSLRSDDTAVYYCARDYDYDVGMDYWGQGTLVTVSSASTKGPSVFPLAPEVQLVESGGGLVQPGGSLRLSCAASGFTINASWIHWVRQAPGKGLEWVGAIYPYSGYTNYADSVKGRFTISADTSKNTAYLQMNSLRAEDTAVYYCARWGHSTSPWAMDYWGQGTLVTVSS
VL: DIVMTQSPDSLAVSLGERATISCRASESVDNYGISFMKWFQQKPGQPPKLLIYAASNQGSGVPDRFSGSGSGTDFTLTISSLQAEDVAVYYCQQSKEVPWTFGGGTKVEIKRTVAAPDIQMTQSPSSLSASVGDRVTITCRASQVIRRSLAWYQQKPGKAPKLLIYAASNLASGVPSRFSGSGSGTDFTLTISSLQPEDFATYYCQQSNTSPLTFGQGTKVEIKR
notes: DVD-Ig, outer AB069 / inner AB071; HC linker long, LC linker short; also called DVD457H; DVD457L
B11 had an EC50 of 1480 nM.

B12: DVD463 (bispecific antibody, IgG1)
VH: QVQLVQSGAEVKKPGASVKISCKASGYSFTAYYIHWVKQAPGQGLEWIGYISSYNGATNYNQKFKGRVTFTTDTSTSTAYMELRSLRSDDTAVYYCARDYDYDVGMDYWGQGTLVTVSSASTKGPEVQLVESGGGLVQPGGSLRLSCAASGFTINASWIHWVRQAPGKGLEWVGAIYPYSGYTNYADSVKGRFTISADTSKNTAYLQMNSLRAEDTAVYYCARWGHSTSPWAMDYWGQGTLVTVSS
VL: DIVMTQSPDSLAVSLGERATISCRASESVDNYGISFMKWFQQKPGQPPKLLIYAASNQGSGVPDRFSGSGSGTDFTLTISSLQAEDVAVYYCQQSKEVPWTFGGGTKVEIKRTVAAPSVFIFPPDIQMTQSPSSLSASVGDRVTITCRASQVIRRSLAWYQQKPGKAPKLLIYAASNLASGVPSRFSGSGSGTDFTLTISSLQPEDFATYYCQQSNTSPLTFGQGTKVEIKR
notes: DVD-Ig, outer AB069 / inner AB071; HC linker short, LC linker long; also called DVD463H; DVD463L
In the case of B12, a half-maximal effect (EC50) was put at 1730 nM.
